Laboratory results reported in paper PMC11784021, “Structural basis for nuclear import of adeno-associated virus serotype 6 capsid protein” (Journal of Virology, 2024).
Values joined by “and” are separate entries in the source; they are usually repeats but may differ in a detail not shown here. Identical values can stand only once. Primed or numbered codes have the meaning given here. Ends that are not written are not given here. FITC′ = fluorescein isothiocyanate; Ahx = NCCCCCC(=O)O

Legend:
Details in all cases: both partners purified
[1] = biological target: T1, mouse importin α2 lacking residues 1-70 (IMPα2ΔIBB) (mouse, UniProt P52293 71-529); experiment: crystal structure; co-purified complex of AAV6 VP1-BR and IMPα2; hanging drop, 0.7 M sodium citrate, 0.01 M dithiothreitol, 0.1 M HEPES pH 7.5, 22°C; 2.3 Å
[2] = biological target: T1, mouse importin α2 lacking residues 1-70 …; experiment: fluorescence polarisation; FITC-tagged AAV6 VP1-BR peptide at 2 nM; importin isoforms serially diluted from an upper concentration of 4.5 µM; three independent experiments
[3] = biological target: T2, human importin α3 lacking the IBB domain (hIMPα3ΔIBB) (human, UniProt O00629 59-521); experiment: as above
T2 construct: pET30a, His tag with TEV site; also called ΔIBB-IMPα3
T2 sequence (looked up): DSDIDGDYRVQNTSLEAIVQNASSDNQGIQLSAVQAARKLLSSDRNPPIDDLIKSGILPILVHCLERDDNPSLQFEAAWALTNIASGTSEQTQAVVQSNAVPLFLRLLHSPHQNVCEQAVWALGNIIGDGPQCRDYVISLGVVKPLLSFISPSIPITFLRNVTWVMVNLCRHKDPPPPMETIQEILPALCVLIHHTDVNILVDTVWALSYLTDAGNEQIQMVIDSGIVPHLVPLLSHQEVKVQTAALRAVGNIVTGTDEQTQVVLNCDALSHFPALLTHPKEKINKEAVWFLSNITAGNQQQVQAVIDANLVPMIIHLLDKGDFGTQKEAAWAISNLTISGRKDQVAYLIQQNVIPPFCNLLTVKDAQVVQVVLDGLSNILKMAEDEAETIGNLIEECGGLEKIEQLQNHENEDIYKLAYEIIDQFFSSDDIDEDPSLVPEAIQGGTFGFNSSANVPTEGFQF

[4] = biological target: T3, human importin α5 lacking the IBB domain (hIMP5ΔIBB) (human, UniProt P52294 58-538); experiment: as above
T3 construct: pET30a, His tag with TEV site; also called IMPα5; ΔIBB-IMPα5

[5] = biological target: T4, human importin α7 lacking the IBB domain (hIMPα7ΔIBB) (human, UniProt O60684 61-536); experiment: as above
T4 construct: pET30a, His tag with TEV site; also called ΔIBB-IMPα7
T4 sequence (O60684 61-536, stated change not applied): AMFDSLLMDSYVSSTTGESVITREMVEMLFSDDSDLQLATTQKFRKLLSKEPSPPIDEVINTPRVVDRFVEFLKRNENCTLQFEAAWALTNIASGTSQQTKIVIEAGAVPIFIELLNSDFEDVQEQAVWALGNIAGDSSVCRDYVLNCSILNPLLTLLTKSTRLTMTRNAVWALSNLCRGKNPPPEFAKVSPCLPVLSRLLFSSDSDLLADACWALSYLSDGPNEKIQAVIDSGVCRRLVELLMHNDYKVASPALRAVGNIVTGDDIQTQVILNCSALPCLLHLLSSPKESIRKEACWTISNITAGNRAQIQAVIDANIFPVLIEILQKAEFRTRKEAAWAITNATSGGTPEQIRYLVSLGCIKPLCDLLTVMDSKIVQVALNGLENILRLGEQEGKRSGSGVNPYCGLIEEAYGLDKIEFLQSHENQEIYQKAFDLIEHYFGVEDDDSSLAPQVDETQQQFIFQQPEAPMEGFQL

T3 sequence (P52294 58-538, stated change not applied): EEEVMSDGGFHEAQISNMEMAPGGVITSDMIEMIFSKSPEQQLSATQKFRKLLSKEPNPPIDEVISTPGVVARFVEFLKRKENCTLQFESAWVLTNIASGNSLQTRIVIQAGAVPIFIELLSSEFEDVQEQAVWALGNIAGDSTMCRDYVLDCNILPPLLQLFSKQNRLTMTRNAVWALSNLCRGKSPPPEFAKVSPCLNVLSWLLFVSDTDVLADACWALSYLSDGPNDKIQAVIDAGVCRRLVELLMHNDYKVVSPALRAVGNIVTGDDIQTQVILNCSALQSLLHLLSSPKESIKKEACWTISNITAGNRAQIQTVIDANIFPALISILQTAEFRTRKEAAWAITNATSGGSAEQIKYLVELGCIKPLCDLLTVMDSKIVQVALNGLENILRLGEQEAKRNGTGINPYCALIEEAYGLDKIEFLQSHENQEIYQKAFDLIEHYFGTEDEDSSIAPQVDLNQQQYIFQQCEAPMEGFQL

B1: AAV6 VP1-BR (recombinant, residues 115-174) (domain or fragment)
chain: GRAVFQAKKRVLEPFGLVEEGAKTAPGKKRPVEQSPQEPDSSSGIGKTGQQPAKKRLNFG
notes: A TEV protease site stands upstream of the insert 'for GST-tag cleavage'; 15 residues of it are seen in the final model; also called AAV6 VP1 basic region; source: E. coli (codon optimized, pGEX4T-1), co-purified with IMPα2
B1: binds [1].

B2: AAV6 VP1-BR FITC-tagged peptide (residues 120-172) (peptide)
peptide: {FITC′-Ahx}-QAKKRVLEPFGLVEEGAKTAPGKKRPVEQSPQEPDSSSGIGKTGQQPAKKRLN
notes: also called FITC-tagged AAV6 VP1-BR; AAV6 VP1-BR FITC peptide; source: synthetic peptide (GenScript)
B2 gave a Kd [2] of 265 nM, a Kd [3] of 198 nM and a Kd [4] of 71 nM. For the same binder, the Kd [5] was 23 nM and 24 nM.
